In the oligonucleotide strings, read from the 5' end, every base follows the letter of its sugar. An asterisk marks phosphorothioate; unmarked linkages are phosphodiester. Other units and linkages are bracketed, terminal groups are in braces. A string of capitals states the bases alone. m = 2'-O-methyl; r = 2'-OH (RNA)
B1: GA238: PCSK9 gRNA; protospacer GCACGACCCCAGCCCTCGCC (SEQ ID NO: 231) (nucleic acid)
guide: GCACGACCCCAGCCCUCGCCGUUUUAGAGCUAGAAAUAGCAAGUUAAAAUAAGGCUAGUCCGUUAUCAACUUGAAAAAGUGGCACCGAGUCGGUGCUUUU
modifications: sugars from the 5' end m3 r94 m3, linkages s3 o93 s3 (s phosphorothioate, o phosphodiester), T or U not given here
B2: GA235: PCSK9 gRNA; protospacer CACCGCTGCCGGCAACTTCC (SEQ ID NO: 228) (nucleic acid)
guide: CACCGCUGCCGGCAACUUCCGUUUUAGAGCUAGAAAUAGCAAGUUAAAAUAAGGCUAGUCCGUUAUCAACUUGAAAAAGUGGCACCGAGUCGGUGCUUUU
modifications: sugars from the 5' end m3 r94 m3, linkages s3 o93 s3 (s phosphorothioate, o phosphodiester), T or U not given here
B3: GA243: PCSK9 gRNA; protospacer GGCGAGGGCTGGGGTCGTGC (SEQ ID NO: 236) (nucleic acid)
guide: GGCGAGGGCUGGGGUCGUGCGUUUUAGAGCUAGAAAUAGCAAGUUAAAAUAAGGCUAGUCCGUUAUCAACUUGAAAAAGUGGCACCGAGUCGGUGCUUUU
modifications: sugars from the 5' end m3 r94 m3, linkages s3 o93 s3 (s phosphorothioate, o phosphodiester), T or U not given here
B4: GA397 (nucleic acid)
guide: mU*mC*mA*rGrCrUrCrCrArGrGrCrGrGrUrCrCrUrGrGmGrUrUrUrUrArGmAmGmCmUmArGmAmAmAmUmAmGmCmAmArGrUrUmArAmArAmUrAmAmGmGmCmUmArGrUmCmCrGrUrU*rAmUmCrArAmCmUmUrGmAmAmAmAmAmGmUmGrGmCmAmCmCmGmAmGmUmCmGmGmUmGmCmU*mU*mU*mUmUmUmU
B5: GA405: gRNA targeting PCSK9 with modifications to the tracr, for SpCas9 (nucleic acid)
guide: mU*mC*mA*rGrCrUrCrCrArGrGrCrGrGrUrCrCrUrGrGmGrUrUrUrUrArGmAmGmCmUmAmGmAmAmAmUmAmGmCmAmArGrUrUmArAmArAmUrAmAmGmGmCmUmArGrUrCmCrGrUrUrAmUmCrArAmCmUmUmGmAmAmAmAmAmGmUmGmGmCmAmCmCmGmAmGmUmCmGmGmUmGmCmU*mU*mU*mUmUrUmU
B6: GA396 (nucleic acid)
guide: mU*mC*mA*rGrCrUrCrCrArGrGrCrGrGrUrCrCrUrGrGmGrUrUrUrUrArGmAmGmCmUmArGmAmAmAmUmAmGmCmAmArGrUrU*mArAmArAmUrAmAmGmGmCmUmArGrUmCmCrGrUrUrAmUmCrArAmCmUmUrGmAmAmAmAmAmGmUmGrGmCmAmCmCmGmAmGmUmCmGmGmUmGmCmU*mU*mU*mUmUmUmU
B7: GA242: PCSK9 gRNA; protospacer TCACCGCTGCCGGCAACTTC (SEQ ID NO: 235) (nucleic acid)
guide: UCACCGCUGCCGGCAACUUCGUUUUAGAGCUAGAAAUAGCAAGUUAAAAUAAGGCUAGUCCGUUAUCAACUUGAAAAAGUGGCACCGAGUCGGUGCUUUU
modifications: sugars from the 5' end m3 r94 m3, linkages s3 o93 s3 (s phosphorothioate, o phosphodiester), T or U not given here
B8: GA399 (nucleic acid)
guide: mU*mC*mA*rGrCrUrCrCrArGrGrCrGrGrUrCrCrUrGrGmGrUrUrUrUrArGmAmGmCmUmAmGmAmAmAmUmAmGmCmAmArGrUrUmArAmArAmUrAmAmGmGmCmUmArGmUrCmCrGrUrUmAmUmCrArAmCmUmUmGmAmAmAmAmAmGmUmGmGmCmAmCmCmGmAmGmUmCmGmGmUmGmCmU*mU*mU*mUmUmUmU
B9: GA395 (nucleic acid)
guide: mU*mC*mA*rGrCrUrCrCrArGrGrCrGrGrUrCrCrUrGrGmGrUrUrUrUrArGmAmGmCmUmArGmAmAmAmUmAmGmCmAmArGrUrUmArAmArAmUrAmAmGmGmCmUmArGrUmCmCrGrUrUrAmUmCrArAmCmUmUrGmAmAmAmAmAmGmUmGrGmCmAmCmCmGmAmGmUmCmGmGmUmGmCmU*mU*mU*mUmUmUmU
B10: GA244: PCSK9 gRNA; protospacer TTCCGAATAAACTCCAGGCC (SEQ ID NO: 237) (nucleic acid)
guide: UUCCGAAUAAACUCCAGGCCGUUUUAGAGCUAGAAAUAGCAAGUUAAAAUAAGGCUAGUCCGUUAUCAACUUGAAAAAGUGGCACCGAGUCGGUGCUUUU
modifications: sugars from the 5' end m3 r94 m3, linkages s3 o93 s3 (s phosphorothioate, o phosphodiester), T or U not given here
B11: GA398 (nucleic acid)
guide: mU*mC*mA*rGrCrUrCrCrArGrGrCrGrGrUrCrCrUrGrGmGrUrUrUrUrArGmAmGmCmUmAmGmAmAmAmUmAmGmCmAmArGrUrUmArAmArAmUrAmAmGmGmCmUmArGrUrCmCrGrUrUrAmUmCrArAmCmUmUmGmAmAmAmAmAmGmUmGmGmCmAmCmCmGmAmGmUmCmGmGmUmGmCmU*mU*mU*mUmUmUmU

Test system: PCSK9 gene
Experiment: PCSK9 gRNA/SpCas9 editing in primary cynomolgus hepatocytes (Tables 2, 22)
Type: cell-based, cynomolgus monkey
Settings: for Cyno Primary Hepatocyte Editing % 100: 100 ng/RNA/mL; for Cyno Primary Hepatocyte Editing % 100 / Cyno Primary Hepatocyte Editing % 500 / Cyno Primary Hepatocyte Editing % 2500: SpCas9 mRNA MS002 1:1 by weight; for Cyno Primary Hepatocyte Editing % 500: 500 ng/RNA/mL; for Cyno Primary Hepatocyte Editing % 2500: 2500 ng/RNA/mL
Description: In set of experiments, PCSK9 gRNAs were co-transfected with an equivalent amount (1:1 ratio by weight) of in vitro transcribed commercially available SpCas9 mRNA MS002 purchased from TriLink Biotechnologies into primary human hepatocytes at 2500, 500, or 100 ng/RNA/mL and processed as described in detailed methods. Extracted genomic DNA was analyzed for gene editing at the target site with next-generation sequencing of PCR amplicons generated around the target sites. Samples were prepared using the Nextera XT DNA library preparation kit (Illumina) according to the manufacturer's protocol. Briefly, two rounds of PCR were performed first to amplify the region of interest and second to add DNA sequences required for next generation sequencing and sample identification to the initial product. The final amplicon was sequenced on the Illumina MiSeq instrument according to the manufacturer's protocol. A wide range of editing activities (Table 2) were observed. In a second set of experiments, ANGPTL3 gRNAs were co-transfected with an equivalent amount of in vitro transcribed SpCas9 mRNA (1:1 ratio by weight) into primary human hepatocytes and processed and analyzed similarly (Table 3).
[…] Genomic DNA was processed, sequenced, and analyzed as described in the detailed methods section. GA266 was transfected independently twice to serve as two positive controls.
Plating, culturing, and transfection of primary hepatocytes. Primary human liver hepatocytes (PHH) and primary cynomolgus liver hepatocytes (PCH) from BioIVT were cultured per the manufacturer's protocol. Briefly, primary human hepatocytes and primary cyno hepatocytes were obtained as frozen aliquots from BioIVT. Four lots of primary human hepatocytes, each derived from a de-identified individual donor, were used for the experiments: STL (main donor) was used for all experiments, including screening experiments and off-target experiments; HLY, JLP, and TLY were used for off-target experiments. The HFG lot of primary cyno hepatocytes were used for experiments. Following the manufacturer's instructions, cells were thawed and rinsed prior to plating in 24-well plates that had been coated with bovine collagen overnight, with a density of approximate 350,000 cells/well in INVITROGRO hepatocyte medium supplemented with TORPEDO antibiotic mix (BioIVT). The cells were thawed and resuspended in hepatocyte thawing medium followed by centrifugation at 100 g for 10 min at 4° C. The supernatant was discarded, and the pelleted cells resuspended in hepatocyte plating medium. Each vial contains approximately 5 million cells that were used for plating one 24-well plate. Plated cells were allowed to settle and adhere for 4-6 h in a tissue culture incubator at 37° C. under 5% CO2 atmosphere. After incubation, cells were checked for monolayer formation. The incubating media were then replaced with fresh hepatocyte maintenance media (complete INVITROGRO medium obtained from BioIVT, the cell line provider). The cells thus became ready for transfection. Each of the gRNAs were co-transfected with an equivalent amount of in vitro transcribed ABE8.8 mRNA (1:1 ratio by molecular weight) into primary human hepatocytes via MessengerMax reagent (Lipofectamine), using various dilutions to assess for editing activity at different concentrations of test article. MessengerMAX from Thermo Fisher is used for transfection. Solution A: desired amount of guide RNA is mixed with 1:1 wt ratio of mRNA in OptiMEM. Solution B: MessengerMAX in OptiMEM. After mixing solutions A and B, the mixture was incubated at room temperature for 20 min. 60 μL of the incubated solution was added dropwise to each cell wells. For protospacer sequences that were a perfect match to the corresponding cynomolgous monkey PCSK9 or ANGPTL3 gene sequence, each gRNA was also co-transfected with an equivalent amount of ABE8.8 mRNA (1:1 ratio by molecular weight) into primary cynomolgous hepatocytes, and followed the same transfection protocol. […]

[1] = SpCas9 mRNA MS002, 625 ng/test article/mL, rep1
[2] = SpCas9 mRNA MS002, 625 ng/test article/mL, rep2
[3] = SpCas9 mRNA MS002, 1250 ng/test article/mL, rep1
[4] = SpCas9 mRNA MS002, 1250 ng/test article/mL, rep2
[5] = SpCas9 mRNA MS002, 2500 ng/test article/mL, rep1
[6] = SpCas9 mRNA MS002, 2500 ng/test article/mL, rep2

Row | Molecule | Cyno Primary Hepatocyte Editing % 100 [%] | Cyno Primary Hepatocyte Editing % 500 [%] | Cyno Primary Hepatocyte Editing % 2500 [%] | Cynomolgus Primary Hepatocytes-% Editing [1] [%] | Cynomolgus Primary Hepatocytes-% Editing [2] [%] | Cynomolgus Primary Hepatocytes-% Editing [3] [%] | Cynomolgus Primary Hepatocytes-% Editing [4] [%] | Cynomolgus Primary Hepatocytes-% Editing [5] [%] | Cynomolgus Primary Hepatocytes-% Editing [6] [%] | editing efficiency compared to positive control GA266 (SpCas9 mRNA MS002, 2500, 1250, 625 ng/test article/mL)
1 | B1 | 0.94 | 4.01 | 17.92 |  |  |  |  |  |  | 
2 | B2 | 2.51 | 17.51 | 50.03 |  |  |  |  |  |  | 
3 | B3 | 0.51 | 1.84 | 10.18 |  |  |  |  |  |  | 
4 | B4 |  |  |  | 40.72 | 46.28 | 56.47 | 58.68 | 56.65 | 58.59 | 
5 | B5 |  |  |  | 26.2 | 26.36 | 35.84 | 35.88 | 41.85 | 47.33 | slightly lower editing efficiency
6 | B6 |  |  |  | 44.44 | 41.53 | 56.02 | 52.02 | 53.98 | 56.84 | 
7 | B7 | 1.79 | 7.13 | 31.71 |  |  |  |  |  |  | 
8 | B8 |  |  |  | 37.75 | 41.8 | 55.55 | 53.02 | 58.97 | 62.75 | 
9 | B9 |  |  |  | 33.87 | 34.57 | 41.48 | 44.35 | 43.91 | 49.53 | 
10 | B10 | 1.63 | 7.89 | 28.16 |  |  |  |  |  |  | 
11 | B11 |  |  |  | 39.09 | 44 | 56.45 | 55.21 | 59.85 | 63.97 | 
